Experiments:
[1] = target: recombinant EsGLUT4 intracellular region (between TM6 and TM7) (Eriocheir sinensis); test: BLI; ForteBio Octet RED96; biotinylated rEsGLUT4 region (50 µg/ml) immobilised on streptavidin (SA) sensors; four serial concentrations of CHHBP, highest 1 µM (intracellular region) and 0.38 µM (extracellular region); association 300 s, dissociation 600 s; room temperature; physiological saline for crab
[2] = target: recombinant EsGLUT4 extracellular region (between TM1 and TM2) (Eriocheir sinensis); test: as above

Kd [1]: 6.81 nM | Kd [2]: 2.52 nM
Substance: recombinant CHH binding protein (CHHBP), an E. sinensis flotillin-like protein (natural protein)
